T1: HA-ADAM23 (UniProt O75077 287-832)
T1 construct: ADAM23 (A Disintegrin And Metalloprotease domain 23) receptor, cDNA; Expression of HA-ADAM23 in HEK293T was lower than that of HA-ADAM22; also called HA-tagged ADAM23; HA-fused ADAM23; source: COS7, co-transfected, on cells (immunofluorescence); HEK293T, co-transfected, in lysate (co-IP)
T1 sequence (looked up): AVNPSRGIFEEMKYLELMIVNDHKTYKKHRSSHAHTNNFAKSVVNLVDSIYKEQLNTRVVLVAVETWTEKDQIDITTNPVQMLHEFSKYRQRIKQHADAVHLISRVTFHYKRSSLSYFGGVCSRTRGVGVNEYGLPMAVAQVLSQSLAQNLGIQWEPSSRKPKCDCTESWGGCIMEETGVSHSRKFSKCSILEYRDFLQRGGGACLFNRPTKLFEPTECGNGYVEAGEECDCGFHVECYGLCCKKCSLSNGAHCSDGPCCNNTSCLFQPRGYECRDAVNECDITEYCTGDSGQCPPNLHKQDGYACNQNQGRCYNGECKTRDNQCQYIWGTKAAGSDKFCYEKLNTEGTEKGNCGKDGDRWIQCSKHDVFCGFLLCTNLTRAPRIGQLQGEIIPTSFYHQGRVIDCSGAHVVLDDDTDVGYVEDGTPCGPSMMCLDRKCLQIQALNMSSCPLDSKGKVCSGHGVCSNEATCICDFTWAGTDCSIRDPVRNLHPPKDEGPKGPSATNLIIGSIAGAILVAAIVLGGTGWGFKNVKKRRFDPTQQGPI

T2: HA-ADAM22 (UniProt Q9P0K1 223-906)
T2 construct: ADAM22 (A Disintegrin And Metalloprotease domain 22) receptor, cDNA; In the HEK293T lysates it is present in both immature (110 kDa) and mature (90 kDa) forms; also called HA-tagged ADAM22; HA-fused ADAM22; source: COS7, co-transfected, on cells (immunofluorescence); HEK293T, co-transfected, in lysate (co-IP)
T2 sequence (looked up): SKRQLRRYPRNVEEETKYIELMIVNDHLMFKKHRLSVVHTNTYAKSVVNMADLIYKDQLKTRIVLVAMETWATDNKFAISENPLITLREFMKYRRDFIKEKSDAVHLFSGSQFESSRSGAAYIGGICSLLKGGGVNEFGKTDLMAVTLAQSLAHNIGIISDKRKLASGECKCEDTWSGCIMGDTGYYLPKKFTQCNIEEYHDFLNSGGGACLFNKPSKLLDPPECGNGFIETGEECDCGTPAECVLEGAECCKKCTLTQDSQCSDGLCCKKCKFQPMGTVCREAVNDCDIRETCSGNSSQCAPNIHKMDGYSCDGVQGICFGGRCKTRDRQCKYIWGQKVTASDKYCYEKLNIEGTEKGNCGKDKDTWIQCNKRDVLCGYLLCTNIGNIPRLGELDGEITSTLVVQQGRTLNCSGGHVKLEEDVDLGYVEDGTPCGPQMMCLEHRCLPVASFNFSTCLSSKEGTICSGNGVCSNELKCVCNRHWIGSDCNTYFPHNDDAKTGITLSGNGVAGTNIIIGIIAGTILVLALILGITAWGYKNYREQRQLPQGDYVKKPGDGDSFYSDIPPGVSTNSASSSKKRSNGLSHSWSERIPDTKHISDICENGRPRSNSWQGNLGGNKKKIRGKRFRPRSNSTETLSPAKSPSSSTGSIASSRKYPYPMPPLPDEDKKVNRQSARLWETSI

B1: wild type LGI1-Flag (leucine-rich, glioma-inactivated 1) (ligand, human, UniProt O95970 35-557, looked up)
chain: KKPAKPKCPAVCTCTKDNALCENARSIPRTVPPDVISLSFVRSGFTEISEGSFLFTPSLQLLLFTSNSFDVISDDAFIGLPHLEYLFIENNNIKSISRHTFRGLKSLIHLSLANNNLQTLPKDIFKGLDSLTNVDLRGNSFNCDCKLKWLVEWLGHTNATVEDIYCEGPPEYKKRKINSLSSKDFDCIITEFAKSQDLPYQSLSIDTFSYLNDEYVVIAQPFTGKCIFLEWDHVEKTFRNYDNITGTSTVVCKPIVIETQLYVIVAQLFGGSHIYKRDSFANKFIKIQDIEILKIRKPNDIETFKIENNWYFVVADSSKAGFTTIYKWNGNGFYSHQSLHAWYRDTDVEYLEIVRTPQTLRTPHLILSSSSQRPVIYQWNKATQLFTNQTDIPNMEDVYAVKHFSVKGDVYICLTRFIGDSKVMKWGGSSFQDIQRMPSRGSMVFQPLQINNYQYAILGSDYSFTQVYNWDAEKAKFVKFQELNVQAPRSFTHVSINKRNFLFASSFKGNTQIYKHVIVDLSA
notes: the protein has a signal peptide and is secreted; also called LGI1 wild type; WT; source: COS7, co-transfected with HA-ADAM22 or HA-ADAM23 (immunofluorescence); HEK293T, co-transfected, in lysate (co-IP)
B2: LGI1-R407C (Flag-tagged) (ligand, human, UniProt O95970 35-557, looked up)
chain: B1 chain with R373C
notes: LGI1 with the ADLTE-causing substitution R407C (c.1219C>T); secreted protein; also called c.1219C>T; source: COS7, co-transfected with HA-ADAM22 or HA-ADAM23 (immunofluorescence); HEK293T, co-transfected, in lysate (co-IP)
B3: LGI1-S473L (Flag-tagged) (ligand, human, UniProt O95970 35-557, looked up)
chain: B1 chain with S439L
notes: LGI1 with the ADLTE-causing substitution S473L (c.1418C>T); secreted protein; also called c.1418C>T; source: COS7, co-transfected with HA-ADAM22 or HA-ADAM23 (immunofluorescence); HEK293T, co-transfected, in lysate (co-IP)
B4: LGI1-R474Q (Flag-tagged) (ligand, human, UniProt O95970 35-557, looked up)
chain: B1 chain with R440Q
notes: LGI1 with the ADLTE-causing substitution R474Q (c.1421G>A); secreted protein; also called c.1421G>A; source: COS7, co-transfected with HA-ADAM22 or HA-ADAM23 (immunofluorescence); HEK293T, co-transfected, in lysate (co-IP)

We go through 4 molecules from article PMC5070869, “Secretion-Positive LGI1 Mutations Linked to Lateral Temporal Epilepsy Impair Binding to ADAM22 and ADAM23 Receptors” (PLoS Genetics, 2016).

Changes are numbered by the printed parent chain. In names and notes the source's numbering stands.

For one assay, the target named is T1, HA-ADAM23. Nature of the assay: immunostaining of cells or tissue; COS7 cells co-transfected with LGI1-Flag (wild type or mutant) and HA-ADAM22 or HA-ADAM23; 36 h after transfection fixed, LGI1 stained with anti-Flag before permeabilisation, ADAM with anti-HA after it; percentage of co-immunostained cells with both signals on the cell surface counted; three independent experiments. Particulars: partners not purified.
Turning to B1, the “percent of cells with membrane-bound LGI1” value came out at 88%.
For the molecule B2, the “percent of cells with membrane-bound LGI1” value worked out at 29%.
Still for that read-out and setting: in the case of B3 it was 16%; in that of B4, 23%.

The next assay has as its target T2, HA-ADAM22. The description is as above. To be noted: partners not purified.
Regarding B1, the “percent of cells with membrane-bound LGI1” value was 76%.
Still for that read-out and setting: in the case of B2 it was 36%; in that of B3, 3%.
In the case of B4, the “percent of cells with membrane-bound LGI1” value was 13%.
